Measured values reported in paper PMC7730623.

What was measured:
[1] = molecular target: human ameloblastin full-length isoform I (AMBN ISO I) (human) (UniProt Q9NP70); test: AUC; sedimentation velocity, 23 uM protein, 20 °C, 10 mM Tris-HCl pH 7.4, 100 mM NaCl, with 10 mM CaCl2; c(s) with bimodal f/f0; average size of heterogeneous oligomers
[2] = molecular target: human ameloblastin full-length isoform I (AMBN ISO I) (human) (UniProt Q9NP70); test: AUC; sedimentation velocity, 23 uM protein, 20 °C, 10 mM Tris-HCl pH 7.4, 100 mM NaCl, no Ca2+; c(s) with bimodal f/f0; average size of heterogeneous oligomers
[3] = molecular target: human ameloblastin full-length isoform II (AMBN ISO II) (human) (UniProt Q9NP70); test: AUC; sedimentation velocity, 23 uM protein, 20 °C, 10 mM Tris-HCl pH 7.4, 100 mM NaCl, with 10 mM CaCl2; c(s) with bimodal f/f0; average size of heterogeneous oligomers
[4] = molecular target: human ameloblastin full-length isoform II (AMBN ISO II) (human) (UniProt Q9NP70); test: AUC; sedimentation velocity, 23 uM protein, 20 °C, 10 mM Tris-HCl pH 7.4, 100 mM NaCl, no Ca2+; c(s) with bimodal f/f0; average size of heterogeneous oligomers

stoichiometry N [1] [monomers] | stoichiometry N [2] [monomers] | stoichiometry N [3] [monomers] | stoichiometry N [4] [monomers] | Substance
33 | 28 | – | – | human ameloblastin full-length isoform I (AMBN ISO I) (from UniProt Q9NP70-1 27-447) (natural protein)
– | – | 20 | 19 | human ameloblastin full-length isoform II (AMBN ISO II) (from UniProt Q9NP70-2 27-432) (natural protein)
